Five molecules from paper PMC3082741 (Chemistry & biology, 2011) can be followed below.

Where a chain is given by its changes, count along the chain named. Numbers in names are those of the source. Where “and” joins values, the source holds several entries; their conditions need not be identical. Equal entries are not always repeated.

Series [1] has as its target AcrA^S362C modified with biotin-maleimide, the immobilized AcrA (E. coli) (UniProt P0AE06). Nature of the series: SPR.
Series [2] deals with the molecule itself. Nature of the series: SEC-MALS.
Series [3] concerns the molecule itself. Nature of the series: SEC-MALS. The source holds these as a separate data set.
Series [4] deals with the molecule itself. In words: SDS-PAGE under reducing and non-reducing conditions.

In series [1], “TolC, outer membrane channel (from UniProt P02930 23-493) (natural protein)” displayed a KD1 (slow complexes, two populations of AcrA) of 0.01 µM and a KD2 (fast complexes, two populations of AcrA) of 0.11 µM.

In series [1], “TolC^YFRE, TolC mutant containing Y362F and R367E substitutions (open variant) (from UniProt P02930 23-493) (natural protein)” came in with a KD1 (slow complexes, two populations of AcrA) of 0.02 µM and a KD2 (fast complexes, two populations of AcrA) of 6.7 µM.

B1: AcrB^S1043C biotinylated at C1043 (Cys1043^bio), the immobilized AcrB (natural protein)
chain: MPNFFIDRPIFAWVIAIIIMLAGGLAILKLPVAQYPTIAPPAVTISASYPGADAKTVQDTVTQVIEQNMNGIDNLMYMSSNSDSTGTVQITLTFESGTDADIAQVQVQNKLQLAMPLLPQEVQQQGVSVEKSSSSFLMVVGVINTDGTMTQEDISDYVAANMKDAISRTSGVGDVQLFGSQYAMRIWMNPNELNKFQLTPVDVITAIKAQNAQVAAGQLGGTPPVKGQQLNASIIAQTRLTSTEEFGKILLKVNQDGSRVLLRDVAKIELGGENYDIIAEFNGQPASGLGIKLATGANALDTAAAIRAELAKMEPFFPSGLKIVYPYDTTPFVKISIHEVVKTLVEAIILVFLVMYLFLQNFRATLIPTIAVPVVLLGTFAVLAAFGFSINTLTMFGMVLAIGLLVDDAIVVVENVERVMAEEGLPPKEATRKSMGQIQGALVGIAMVLSAVFVPMAFFGGSTGAIYRQFSITIVSAMALSVLVALILTPALSATMLKPIAKGDHGEGKKGFFGWFNRMFEKSTHHYTDSVGGILRSTGRYLVLYLIIVVGMAYLFVRLPSSFLPDEDQGVFMTMVQLPAGATQERTQKVLNEVTHYYLTKEKNNVESVFAVNGFGFAGRGQNTGIAFVSLKDWADRPGEENKVEAITMRATRAFSQIKDAMVFAFNLPAIVELGTATGFDFELIDQAGLGHEKLTQARNQLLAEAAKHPDMLTSVRPNGLEDTPQFKIDIDQEKAQALGVSINDINTTLGAAWGGSYVNDFIDRGRVKKVYVMSEAKYRMLPDDIGDWYVRAADGQMVPFSAFSSSRWEYGSPRLERYNGLPSMEILGQAAPGKSTGEAMELMEQLASKLPTGVGYDWTGMSYQERLSGNQAPSLYAISLIVVFLSLAALYESWSIPFSVMLVVPLGVIGALLAATFRGLTNDVYFQVGLLTTIGLSAKNAILIVEFAKDLMDKEGKGLIEATLDAVRMRLRPILMTSLAFILGVMPLVISTGAGSGAQNAVGTGVMGGMVTATVLAIFFVPVFFVVVRRRFSRKNEDIEHCHTVDHH
modifications: maleimide-PEG2-biotin on C1043
B1: the “stoichiometry N” value in “SEC-MALS [2]” is 2 and 3.

B2: AcrA^l, native lipid-modified AcrA (natural protein)
chain: CDDKQAQQGGQQMPAVGVVTVKTEPLQITTELPGRTSAYRIAEVRPQVSGIILKRNFKEGSDIEAGVSLYQIDPATYQATYDSAKGDLAKAQAAANIAQLTVNRYQKLLGTQYISKQEYDQALADAQQANAAVTAAKAAVETARINLAYTKVTSPISGRIGKSNVTEGALVQNGQATALATVQQLDPIYVDVTQSSNDFLRLKQELANGTLKQENGKAKVSLITSDGIKFPQDGTLEFSDVTVDQTTGSITLRAIFPNPDHTLLPGMFVRARLEEGLNPNAILVPQQGVTRTPRGDATVLVVGADDKVETRPIVASQAIGDKWLVTEGLKAGDRVVISGLQKVRPGVQVKAQEVTADNNQQAASGAQPEQSKS
modifications: N-terminal lipid modification at C25
For the molecule B2, the “stoichiometry N” value in the series “SEC-MALS [3]” was determined as 2.

B3: AcrA^G363C, lipid-modified AcrA with the G363C substitution in the MP domain (natural protein)
chain: B2 chain with G339C
modifications: N-terminal lipid modification at C25; disulfide bond between the two chains
Regarding B3, the “stoichiometry N” value in series [4] turned out to be 2.
